{"source": "patent US9119806B2", "about": "“Culturing circular ssDNA viruses for the production of vaccines” (priority 2007, dated 2015)", "key": {"[1]": {"test_system": "PCV2 strain Stoon-1010 in PK-15 cells", "assay": "Progeny PCV2 production in PK-15 cells with acidification inhibitors and/or IFN-gamma", "assay_type": "cell-based, Porcine circovirus 2", "details": "IFN-gamma 500 U/ml pre-treatment", "procedure": "For progeny virus production assays, 2×10^5 cells were seeded in every well of 24-well cell culture plates. Cells were pre-treated with or without 500 U/ml IFN-gamma at 6 hours post seeding. At 24 h post-seeding, cells were washed and inoculated with the prototype PCV2 strain Stoon-1010 at an m.o.i. of 0.3 for 1 hour at 37° C. The viral inoculum was washed-off and cells were further incubated in 1 ml of culture medium with or without 25 mM ammonium chloride, 125 μM chloroquine diphosphate and/or 6 μM monensin for 24 hours. Then, the culture medium with or without endosomal-lysosomal system acidification inhibitors was replaced with fresh culture medium without inhibitors. At 1, 24, 48 and 72 hours post-inoculation the supernatant was collected. Subsequently the culture was washed once with 1 ml PBS. Both the supernatant and the washing fluid were centrifuged for 10 minutes at 15,000×g to pellet cells and debris. The centrifuged supernatant and washing fluids were combined and considered to contain the extracellular virus. Both pellets and cell cultures were freeze-thawed three times and considered to contain the intracellular virus. Intra- and extracellular virus titres were determined by titration on PCV-negative PK-15 cells as described previously. Viral antigens were detected using an IPMA as described above and PCV2 titre was expressed as log10 TCID50 per 10^5 cells."}, "[2]": {"test_system": "PCV2 (field strain Imp-1121)", "assay": "PCV2 replication in inoculated pigs given IFN-gamma or ConA", "assay_type": "in vivo", "details": "pigs inoculated at 19 days of age; samples 10, 15, 21 days post inoculation", "procedure": "Pigs are inoculated with PCV2 (field strain Imp-1121) at 19 days of age. These inoculated pigs are divided in 3 groups. One group contains control pigs (only PCV2). The second group of pigs receives recombinant IFN-gamma (100,000 U per pig every three days). The third group contains pigs that receive ConA (1.5 mg/kg every three days). At different times post inoculation (10, 15, 21 days) samples are collected and the replication of the virus is assessed."}, "[3]": {"test_system": "PCV2 capsids on 3D4/31 cells", "assay": "Attachment of PCV2 capsids (virion-like particles) on 3D4/31 cells", "assay_type": "cell-based, Porcine circovirus 2", "details": "4° C., 0-60 minutes", "procedure": "The attachment of PCV2 capsids onto untreated 3D4/31 cells and 3D4/31 cells pre-treated with IFN-gamma was studied as described by Misinzo et al. (J Gen Virol. conditionally accepted for publication). Briefly, treated and untreated 3D4/31 cells were chilled on ice and washed before PCV2 capsids were added and allowed to attach for 0, 1, 5, 10, 15, 30 and 60 minutes at 4° C. Unbound PCV2 capsids were washed-off and cells were fixed with 3% (w/v) paraformaldehyde in phosphate-buffered saline with calcium and magnesium (PBS+) at room temperature for 10 minutes. In order to stain the PCV2 capsids, cells were incubated with biotin-conjugated anti-PCV2 swine polyclonal antibodies and streptavidin-FITC (Molecular Probes, Leiden, The Netherlands) for 1 hour at room temperature. The slides were mounted and analysed by acquisition of digital images of stained PCV2 capsids using a Leica TCS SP2 laser scanning spectral confocal system (Leica Microsystems GmbH, Heidelberg, Germany) linked to a Leica DM/IRB inverted microscope (Leica Microsystems GmbH, Wetzlar, Germany). Successive images from the apex to the base of a single cell were taken and merged. The number of PCV2 capsids attached per cell was counted for ten cells at each time point to establish their binding kinetics into 3D4/31 cells."}}, "data": [{"molecule": "IFN-gamma: Porcine interferon gamma purchased from R&D systems (protein, UniProt P17803 24-166, looked up) Interferon gamma: QAPFFKEITILKDYFNASTSDVPNGGPLFLEILKNWKEESDKKIIQSQIVSFYFKFFEIFKDNQAIQRSMDVIKQDMFQRFLNGSSGKLNDFEKLIKIPVDNLQIQRKAISELIKVMNDLSPRSNLRKRKRSQTMFQGQRASK", "values": [{"measurement": "PCV2 titres at 1 hpi", "setting": "[1]; 1 hpi", "value": 2.0, "unit": "TCID50 per 10^5 cells"}, {"measurement": "PCV2 titres at 24 hpi", "setting": "[1]; 24 hpi", "value": 2.1, "unit": "TCID50 per 10^5 cells"}, {"measurement": "PCV2 titres at 48 hpi", "setting": "[1]; 48 hpi", "value": 3.4, "unit": "TCID50 per 10^5 cells"}, {"measurement": "PCV2 titres at 72 hpi", "setting": "[1]; 72 hpi", "value": 3.9, "unit": "TCID50 per 10^5 cells"}, {"measurement": "replication of PCV2 compared to control pigs (in words)", "setting": "[2]", "value": "increase in the replication of PCV2"}, {"measurement": "number of attached virion-like particles per cell and binding kinetics (in words)", "setting": "[3]", "value": "No differences were observed"}]}]}
